Columns and labels:
[1] = target: T1, P-Selectin-His tag (mouse) (mouse, UniProt Q01102 42-709, limits assumed); assay: SPRi (PlexArray HT), mouse P-Selectin-His printed on chip, fusion protein as analyte, 25 C
T1 construct: also called mouse P-selectin; mouse antigen P-Selectin; not shown: His tag
T1 sequence (looked up): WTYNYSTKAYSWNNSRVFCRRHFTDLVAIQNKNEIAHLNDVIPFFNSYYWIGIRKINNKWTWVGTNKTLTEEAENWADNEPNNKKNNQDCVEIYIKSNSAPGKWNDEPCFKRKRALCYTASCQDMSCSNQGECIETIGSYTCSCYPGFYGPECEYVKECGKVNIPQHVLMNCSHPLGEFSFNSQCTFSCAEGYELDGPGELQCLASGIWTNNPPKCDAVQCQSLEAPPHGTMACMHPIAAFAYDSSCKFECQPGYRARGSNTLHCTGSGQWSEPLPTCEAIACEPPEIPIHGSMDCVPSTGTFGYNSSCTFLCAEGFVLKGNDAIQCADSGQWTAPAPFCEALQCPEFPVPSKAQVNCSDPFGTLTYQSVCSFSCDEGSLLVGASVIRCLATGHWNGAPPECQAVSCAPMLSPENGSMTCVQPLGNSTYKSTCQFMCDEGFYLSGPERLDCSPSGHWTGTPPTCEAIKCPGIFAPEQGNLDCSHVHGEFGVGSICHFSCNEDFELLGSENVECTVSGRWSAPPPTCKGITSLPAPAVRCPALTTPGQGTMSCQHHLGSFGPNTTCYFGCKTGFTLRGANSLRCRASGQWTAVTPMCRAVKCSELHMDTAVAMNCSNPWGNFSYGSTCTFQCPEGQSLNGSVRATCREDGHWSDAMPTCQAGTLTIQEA
Procedure: FIG. 20A through FIG. 20C depict a representative experimental evaluation of the binding affinity of mouse antigen P-Selectin to B.PselscFv-Crry and NB.PselscFv-Crry. SPR binding assays were performed to measure binding affinity KD and kinetic parameters ka, kd of B.PselscFv-Crry and NB.PselscFv-Crry. The ligand is P-Selectin-His tag (mouse) which was printed onto the chip. The analytes are B.PselscFv-Crry and NB.PselscFv-Crry. After data collection with SPR and kinetics fitting and analysis, the KD, ka, and kd were calculated. FIG. 20A depicts exemplary kinetics fitting curves of P-Selectin to B.PselscFv-Crry. FIG. 20B depicts exemplary kinetics fitting curves of P-Selectin to NB.PselscFv-Crry.
To measure binding affinity, surface plasmon resonance was used with mouse P-selectin as the immobilized ligand and B.PselscFv-Crry (FIG. 20A) and NB.PselscFv-Crry (FIG. 20B) as the analytes. Various concentrations of P-Selectin dissolved in water were manually printed onto the bare gold-coated (thickness 47 nm) PlexArray Nanocapture Sensor Chip (Plexera Bioscience, Seattle, WA, US) at 40% humidity. Each concentration was printed in replicate, and each spot contained 0.2 μL of sample solution. The chip was incubated in 80% humidity at 4° C. for overnight, and rinsed with 10×PBST for 10 min, 1×PBST for 10 min, and deionized water twice for 10 min. The chip was then blocked with 5% (w/v) non-fat milk in water overnight, and washed with 10×PBST for 10 min, 1×PBST for 10 min, and deionized water twice for 10 min before being dried under a stream of nitrogen prior to use. SPRi measurements were performed with PlexAray HT (Plexera Bioscience, Seattle, WA, US). Collimated light (660 nm) passes through the coupling prism, reflects off the SPR-active gold surface, and is received by the CCD camera. Buffers and samples were injected by a non-pulsatile piston pump into the 30 μL flowcell that was mounted on the coupling prim.

[2] = target: T2, human P-selectin (human, UniProt P16109 42-771, limits assumed); assay: ELISA binding assay on human P-selectin, OD 450
T2 construct: also called human P-selectin antigen
T2 sequence (looked up): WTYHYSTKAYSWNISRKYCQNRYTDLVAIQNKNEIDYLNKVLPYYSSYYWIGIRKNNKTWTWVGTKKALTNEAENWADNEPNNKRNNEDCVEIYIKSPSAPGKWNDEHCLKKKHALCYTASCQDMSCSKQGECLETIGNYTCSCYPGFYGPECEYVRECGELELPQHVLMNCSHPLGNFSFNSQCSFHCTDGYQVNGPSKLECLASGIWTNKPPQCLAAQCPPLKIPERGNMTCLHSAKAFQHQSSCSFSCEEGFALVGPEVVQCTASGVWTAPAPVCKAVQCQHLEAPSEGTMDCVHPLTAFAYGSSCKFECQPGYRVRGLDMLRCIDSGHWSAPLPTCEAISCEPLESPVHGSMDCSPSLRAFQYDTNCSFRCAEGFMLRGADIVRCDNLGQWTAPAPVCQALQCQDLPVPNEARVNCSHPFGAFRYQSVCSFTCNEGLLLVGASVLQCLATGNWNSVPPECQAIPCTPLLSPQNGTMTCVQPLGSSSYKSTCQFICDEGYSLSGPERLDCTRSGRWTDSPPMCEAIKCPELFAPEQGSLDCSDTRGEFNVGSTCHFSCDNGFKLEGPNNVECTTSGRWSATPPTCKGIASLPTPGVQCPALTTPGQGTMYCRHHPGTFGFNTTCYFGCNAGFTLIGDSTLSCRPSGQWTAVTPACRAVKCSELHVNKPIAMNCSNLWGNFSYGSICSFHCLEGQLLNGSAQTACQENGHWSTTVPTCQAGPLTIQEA
Procedure: To evaluate the ability of B.PselscFv-Crry and NB.PselscFv-Crry to inhibit complement activation, a zymosan A bead assay was performed. Briefly, flow cytometric analysis of C3 deposition on zymosan A particles (SigmaAldrich) was performed and the extent of complement inhibition was normalized by the subtraction of post-IRI complement deposition levels from their baseline levels. Both B.PSelscFv-Crry and NB.PSelscFv-Crry constructs inhibit complement activation in a dose-dependent manner (FIG. 21A). Further, to evaluate the binding of B.PselscFv-Crry and NB.PselscFv-Crry to human P-selectin, an ELISA was performed. Briefly, non-blocking and blocking fusion proteins (NB.PselscFv-Crry and B.PselscFv-Crry, respectively) were plated at varying doses in addition to varying doses of C2-Crry as a negative control.

Kd [1]: 630 nM
koff [1]: 0.00179 s⁻¹
kon [1]: 2840 M⁻¹ s⁻¹
EC50 (read off the curve) [2]: ~0.06 µg/mL
B1: NB.PSelscFv-Crry (anti-pselectin 2.3scFv-Crry, non-blocking) (scFv)
chain: QIQLVLSGPELKKPGESVKISCKASGYTFTTYGMSWVKQAPGKGLKWMGWINTSSGVPTYADDFKGRFAFSLETSASTAYLQINNLKNEDTATYFCARGGGYYGAYYFYYWGQGTTLTVSSGGGGSGGGGSGGGGSDIQMTQSPASLSASVGETVTITCRTSDNINSYLAWYLQRQGKSPQLLVYNAKTLTEGVPSRFSGSGSGTQFSLKINSLQPEDFGSYYCQHHYGPPPTFGGGTKLEIKGGGGSGGGGSCPAPSQLPSAKPINLTDESMFPIGTYLLYECLPGYIKRQFSITCKQDSTWTSAEDKCIRKQCKTPSDPENGLVHVHTGIQFGSRINYTCNQGYRLIGSSSAVCVITDQSVDWDTEAPICEWIPCEIPPGIPNGDFFSSTREDFHYGMVVTYRCNTDARGKALFNLVGEPSLYCTSNDGEIGVWSGPPPQCIELNKCTPPPYVENAVMLSENRSLFSLRDIVEFRCHPGFIMKGASSVHCQSLNKWEPELPSCFKGVICRLPQEMSGFQKGLGMKKEYYYGENVTLECEDGYTLEGSSQSQCQSDGSWNPLLAKCVSRSIIEGRHHHHHH
notes: also called Psel.NB; Psel-NB

From patent US20240018247A1 (MUSC FOUNDATION FOR RESEARCH DEVELOPMENT, published 2024)
